Reference: PMC10484741, “Human TRMT2A methylates tRNA and contributes to translation fidelity”
Where a chain is given by its changes, count along the chain named. Names and notes keep the numbering of the source.

How the values were obtained:
[1] = target: T1, hTRMT2A FL (WT) (Homo sapiens, UniProt Q8IZ69 1-625); experiment: SPR; steady-state fit, apparent KD; EMSA: 50 mM HEPES-NaOH pH 7.5, 150 mM NaCl, 4% glycerol, 2.5 ng/ul poly(U), 5 nM RNA, 0-1.25 uM protein (final, as stated), 20 min room temperature; SPR: 150 mM NaCl, 50 mM HEPES-NaOH 7.5, 0.05% Tween, 25 C; conditions: protein: recombinant; tags: N-terminal His-SUMO tag cleaved; label: 3' biotin; tRNA cloverleaf
T1 sequence: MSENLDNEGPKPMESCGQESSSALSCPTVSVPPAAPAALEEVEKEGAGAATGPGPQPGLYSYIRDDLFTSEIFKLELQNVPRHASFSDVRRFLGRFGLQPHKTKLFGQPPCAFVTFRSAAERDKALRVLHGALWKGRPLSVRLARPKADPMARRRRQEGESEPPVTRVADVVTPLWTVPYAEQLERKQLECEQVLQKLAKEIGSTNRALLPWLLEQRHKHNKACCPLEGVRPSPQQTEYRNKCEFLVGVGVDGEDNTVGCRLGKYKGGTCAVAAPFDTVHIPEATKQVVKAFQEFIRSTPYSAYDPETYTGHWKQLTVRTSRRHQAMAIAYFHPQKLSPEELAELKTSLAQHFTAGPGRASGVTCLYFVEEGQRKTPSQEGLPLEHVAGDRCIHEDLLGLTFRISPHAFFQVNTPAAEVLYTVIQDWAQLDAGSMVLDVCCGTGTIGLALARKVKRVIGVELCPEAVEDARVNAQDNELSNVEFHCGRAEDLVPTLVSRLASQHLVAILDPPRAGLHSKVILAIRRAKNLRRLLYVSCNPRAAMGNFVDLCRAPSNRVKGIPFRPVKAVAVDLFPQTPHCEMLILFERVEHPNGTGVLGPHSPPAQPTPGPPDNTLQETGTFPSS

[2] = target: T2, hTRMT2A CDM (catalytic death mutant) (Homo sapiens, UniProt Q8IZ69 1-625, E76A;K104E;F113A;K242A;F409A;Q411A;D510A;C538A); experiment: as above; conditions: protein: recombinant; tags: N-terminal His-SUMO tag cleaved; label: 3' biotin; tRNA cloverleaf
T2 sequence: T1 sequence with E76A, K104E, F113A, K242A, F409A, Q411A, D510A, C538A

[3] = target: T1, hTRMT2A FL (WT); experiment: EMSA; low nM KD range; shift already at 60 nM; poly(U) competitor; EMSA: 50 mM HEPES-NaOH pH 7.5, 150 mM NaCl, 4% glycerol, 2.5 ng/ul poly(U), 5 nM RNA, 0-1.25 uM protein (final, as stated), 20 min room temperature; SPR: 150 mM NaCl, 50 mM HEPES-NaOH 7.5, 0.05% Tween, 25 C; conditions: protein: recombinant; tags: N-terminal His-SUMO tag cleaved; label: 5'-32P; tRNA cloverleaf
[4] = target: T2, hTRMT2A CDM (catalytic death mutant); experiment: EMSA; similar to WT, nM KD range, more supershifts; poly(U) competitor; EMSA: 50 mM HEPES-NaOH pH 7.5, 150 mM NaCl, 4% glycerol, 2.5 ng/ul poly(U), 5 nM RNA, 0-1.25 uM protein (final, as stated), 20 min room temperature; SPR: 150 mM NaCl, 50 mM HEPES-NaOH 7.5, 0.05% Tween, 25 C; conditions: protein: recombinant; tags: N-terminal His-SUMO tag cleaved; label: 5'-32P; tRNA cloverleaf
[5] = target: T1, hTRMT2A FL (WT); experiment: size exclusion chromatography; 1:1 mix; elution shift 17.41 to 15.46 ml; EMSA: 50 mM HEPES-NaOH pH 7.5, 150 mM NaCl, 4% glycerol, 2.5 ng/ul poly(U), 5 nM RNA, 0-1.25 uM protein (final, as stated), 20 min room temperature; SPR: 150 mM NaCl, 50 mM HEPES-NaOH 7.5, 0.05% Tween, 25 C; conditions: protein: recombinant; tags: N-terminal His-SUMO tag cleaved; tRNA cloverleaf
[6] = target: T1, hTRMT2A FL (WT); experiment: EMSA; low nM KD range; poly(U) competitor; EMSA: 50 mM HEPES-NaOH pH 7.5, 150 mM NaCl, 4% glycerol, 2.5 ng/ul poly(U), 5 nM RNA, 0-1.25 uM protein (final, as stated), 20 min room temperature; SPR: 150 mM NaCl, 50 mM HEPES-NaOH 7.5, 0.05% Tween, 25 C; conditions: protein: recombinant; tags: N-terminal His-SUMO tag cleaved; label: 5'-32P; tRNA cloverleaf

B1: tRNAGln-TTG, 3' biotin (structured_RNA)
RNA: GGUCCCAUGGUGUAAUGGUUAGCACUCUGGACUUUGAAUCCAGCGAUCCGAGUUCAAAUCUCGGUGGGACCUCCA
modifications: 3' biotin
[1]
  Kd: 306 ± 60 nM
[2]
  Kd: 428 ± 71 nM

B2: tRNAGln-TTG (structured_RNA)
RNA: B1 RNA
[3]
  binding result: binds
[4]
  binding result: binds

B3: tRNAGln-TTG, unlabeled (structured_RNA)
RNA: B1 RNA
[5]
  binding result: binds

B4: tRNAGln U54G (structured_RNA)
RNA: B1 RNA with U53G
[6]
  binding result: binds

B5: tRNAAla-AGC (A54) (structured_RNA)
RNA: GGGGAAUUAGCUCAGGCGGUAGAGCGCUCGCUUAGCAUGCGAGAGGUAGCGGGAUCGACGCCCGCAUUCUCCA
[6]
  binding result: binds
